Measured values from article PMC13544220, “Glycemic and bodyweight effects of GIPR coding variation reflect differences in surface expression and intrinsic functional impairment” (Science Advances, 2026).

Legend:
Type in all cases: cell-based, human
[1] = test system: wild-type and variant SNAP-GIPR; test: Constitutive and agonist-mediated internalization, reversible SNAP-tag labelling, INS-1 cells; parameters: key to Internalisation, GIP-only / Internalisation, Vehicle / Internalisation, +GIP: % internalization: residual fluorescence after Mesna vs pre-Mesna; settings: Mean
Summary of the method: (§1)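 Surface SNAP-GIPR signal removable by Mesna was tracked by imaging before and 10 min after treatment in pH 8.6 TNE buffer. Internalization is the Mesna-resistant share of specific fluorescence.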

[2] = test system: wild-type and variant SNAP-GIPR; test: Constitutive and agonist-mediated internalization, reversible SNAP-tag labelling, AD293 cells; parameters: key to Internalisation, Vehicle / Internalisation, +GIP / Internalisation, GIP-only: % internalization: residual fluorescence after Mesna vs pre-Mesna; Surface expression: unit not given here; settings: Mean
Summary of the method: as §1

[3] = test system: wild-type and variant SNAP-GIPR; test: Surface SNAP-GIPR expression (SNAP-tag labelling) in AD293 cells; settings: for AD293 Surface: Fig S3E, mean; for Surface SNAP-GIPR expression: sheet Fig 1C;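 on all read-outs here: scaled to the experimental average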
Summary of the method: (§2)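 Surface GIPR is quantified from wide-field images after labelling intact transfected cells with a membrane-impermeant SNAP probe at 500 nM for 10 min at room temperature. Specific signal, corrected for nontransfected cells, is normalized to the experiment-wide average or to wild-type.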

[4] = test system: wild-type and variant SNAP-GIPR; test: Single-concentration GIP cAMP response by HTRF in AD293 cells; settings: Fig S3F, HTRF, mean;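 further: ratio to experiment-wide average response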
Procedure: (§3) All variants were tested in parallel on each occasion to control for transfection efficiency differences between experiments.

[5] = test system: wild-type and variant SNAP-GIPR; test: cADDis cAMP imaging in AD293 cells, ensemble, expression-matched and per decile; settings: Fig S3F, cADDis, mean
Summary of the method: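 Per-cell cAMP from cADDis intensity over time, with cells excluded by IBMX/FSK response criteria. Expression matching used wild-type surface-SNAP deciles, top and bottom trimmed, mean of decile means. Ensemble values ignore deciles. Wide-field imaging at 37 °C in KRBH with 6 mM glucose, 0.1% BSA, 24 h post-transfection in AD293.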

[6] = test system: wild-type and variant SNAP-GIPR; test: Surface SNAP-GIPR expression (SNAP-tag labelling) in INS-1 cells; settings: Fig 4G; Mean
Summary of the method: as §2

[7] = test system: wild-type and variant SNAP-GIPR; test: Single-concentration GIP cAMP response by HTRF in INS-1 cells; settings: Fig S3E, mean
Procedure: as §3

B1: R300W (protein, UniProt P48546 22-466, looked up, variant R300W)
Gastric inhibitory …: RAETGSKGQTAGELYQRWERYRRECQETLAAAEPPSGLACNGSFDMYVCWDYAAPNATARASCPWYLPWHHHVAAGFVLRQCGSDGQWGLWRDHTQCENPEKNEAFLDQRLILERLQVMYTVGYSLSLATLLLALLILSLFRRLHCTRNYIHINLFTSFMLRAAAILSRDRLLPRPGPYLGDQALALWNQALAACRTAQIVTQYCVGANYTWLLVEGVYLHSLLVLVGGSEEGHFRYYLLLGWGAPALFVIPWVIVRYLYENTQCWERNEVKAIWWIIWTPILMTILINFLIFIRILGILLSKLRTRQMRCRDYRLRLARSTLTLVPLLGVHEVVFAPVTEEQARGALRFAKLGFEIFLSSFQGFLVSVLYCFINKEVQSEIRRGWHHCRLRRSLGEEQRQLPERAFRALPSGSGPGEVPTSRGLSSGTLPGPGNEASRELESYC
With B1 the “+GIP internalisation (100 nM)” value ([1]; Fig 4G, GIP 100 nM) was 0.4496, the “GIP-specific internalisation (100 nM)” value ([1]; Fig 4G, GIP 100 nM) was 0.1127 and the “Constitutive internalisation (100 nM)” value ([1]; Fig 4G) was 0.3368. For the same molecule, the “Internalisation, +GIP” value ([1]; Fig S4C, INS-1) was 49.27, the “Internalisation, GIP-only” value ([1]; Fig S4C, INS-1) was 12.1983 and the “Internalisation, Vehicle” value ([1]; Fig S4C, INS-1) was 37.0717. For the same molecule, the “+GIP internalisation (100 nM)” value ([2]; Fig 4E, GIP 100 nM) was 0.5841, the “GIP-specific internalisation (100 nM)” value ([2]; Fig 4E, GIP 100 nM) was 0.1667 and the “Constitutive internalisation (100 nM)” value ([2]; Fig 4E) was 0.4174. For the same molecule, the Surface expression ([2]; Fig 4E) was 1.0064, the “Internalisation, +GIP” value ([2]; Fig S4C, AD293) was 57.8459 and the “Internalisation, GIP-only” value ([2]; Fig S4C, AD293) was 16.6116. The “Internalisation, Vehicle” value ([2]; Fig S4C, AD293) was 41.2342, the “AD293 Surface” value ([3]; column repeated, paired with cAMP 100 nM) was 0.7271 and the “AD293 Surface” value ([3]; paired with cAMP 100 pM) was 0.7271. The “Surface SNAP-GIPR expression” value ([3]; replicate 1) was 0.3062, the “Surface SNAP-GIPR expression” value ([3]; replicate 2) was 0.3328 and the “Surface SNAP-GIPR expression” value ([3]; replicate 3) was 0.1592. For the same molecule, the “Surface SNAP-GIPR expression” value ([3]; replicate 4) was 0.8304, the “Surface SNAP-GIPR expression” value ([3]; replicate 5) was 0.6683 and the “Surface SNAP-GIPR expression” value ([3]; replicate 6) was 0.6889. The “Surface SNAP-GIPR expression” value ([3]; replicate 7) was 0.4744, the “Surface SNAP-GIPR expression” value ([3]; replicate 8) was 0.7417 and the “Surface SNAP-GIPR expression” value ([3]; replicate 9) was 0.7319. The “Surface SNAP-GIPR expression” value ([3]; replicate 10) was 0.4888, the “Surface SNAP-GIPR expression” value ([3]; replicate 11) was 0.5692 and the “Surface SNAP-GIPR expression” value ([3]; replicate 12) was 0.5524. The “Surface SNAP-GIPR expression” value ([3]; replicate 13) was 0.6029, the “Surface SNAP-GIPR expression” value ([3]; replicate 14) was 0.8734 and the “Surface SNAP-GIPR expression” value ([3]; replicate 15) was 0.6318. The “Surface SNAP-GIPR expression” value ([3]; replicate 16) was 0.7838, the “Surface SNAP-GIPR expression” value ([3]; replicate 17) was 0.7645 and the “Surface SNAP-GIPR expression” value ([3]; replicate 18) was 0.8288. The “Surface SNAP-GIPR expression” value ([3]; replicate 19) was 0.8256, the “Surface SNAP-GIPR expression” value ([3]; replicate 20) was 0.8307 and the “Surface SNAP-GIPR expression” value ([3]; replicate 21) was 0.7929. For the same molecule, the “Surface SNAP-GIPR expression” value ([3]; replicate 22) was 0.7293, the “Surface SNAP-GIPR expression” value ([3]; replicate 23) was 0.8041 and the “Surface SNAP-GIPR expression” value ([3]; replicate 24) was 0.7665. For the same molecule, the “Surface SNAP-GIPR expression” value ([3]; replicate 25) was 0.8609, the “Surface SNAP-GIPR expression” value ([3]; replicate 26) was 0.8382 and the “Surface SNAP-GIPR expression” value ([3]; replicate 27) was 0.9176. For the same molecule, the “Surface SNAP-GIPR expression” value ([3]; replicate 28) was 0.9055, the “Surface SNAP-GIPR expression” value ([3]; replicate 29) was 1.047 and the “Surface SNAP-GIPR expression” value ([3]; replicate 30) was 0.4161. For the same molecule, the “Surface SNAP-GIPR expression” value ([3]; replicate 31) was 0.3148, the “Surface SNAP-GIPR expression” value ([3]; replicate 32) was 0.4777 and the “Surface SNAP-GIPR expression” value ([3]; replicate 33) was 0.3827. The “Surface SNAP-GIPR expression” value ([3]; replicate 34) was 0.923, the “Surface SNAP-GIPR expression” value ([3]; replicate 35) was 0.8683 and the “Surface SNAP-GIPR expression” value ([3]; replicate 36) was 0.9333. The “Surface SNAP-GIPR expression” value ([3]; replicate 37) was 0.8174, the “Surface SNAP-GIPR expression” value ([3]; replicate 38) was 1.012 and the “Surface SNAP-GIPR expression” value ([3]; replicate 39) was 1.271. The “Surface SNAP-GIPR expression” value ([3]; replicate 40) was 1.105, the “Surface SNAP-GIPR expression” value ([3]; replicate 41) was 0.9446 and the “AD293 100 pM HTRF” value ([4]; AD293, 100 pM) was 0.5327. The “AD293 100 nM HTRF” value ([4]; AD293, 100 nM) was 1.632, the “AD293 100 pM cADDis” value ([5]; AD293, 100 pM) was 30.0031 and the “AD293 100 nM cADDis” value ([5]; AD293, 100 nM) was 37.61. The Surface expression [6] was 0.9197 and the “INS-1 cAMP (100 nM)” value [7] was 1.326.
